A short description of this data set: label from the status in PepcDB records.

“MKTRINYAKASPEAFKAVMALENYVQSSGLEHRFIHLIKLRASIINGCAFCVDMHVKESRHDGLSEQWINLMSVWRESPVYTEQERALLGWVDAVTKIAETGAPDDAFETLRAHFSDEEIVKITVAIGAINTWNRIAVGFRSQHPVEAAAKAA”: the protein production entry was “not failed”.

Take “MKTSFSIRIAFFFILSFLAVSCHRDTDALNMTFSKVEKCMDLCPDSALNLLKGIHDPEKLWGESQATYALLMTQAMDKNYMKFSSDSLIALALNYYTITQTSPIMYAKALFYHGRVMLELDKEEEALKSFLAAKDVYERTKDHKMLALIAEEVGMINRKQDLYDDALTNFREALTTYKQLKDSLSVISASLNIARVYLFKSEWDSCSLYYNNALEIAVQKNYLSEITILHELGILYRSMQNLSEAERYFLAAYEKETDEEKKYMECLSLGYLYMQMGQTENARKYLIMSANSSKAYTQISAYDCLYFLEKDIDNFEEAIVYHELADSITNAMEELNSRELIASLQKKYENEKLRNDNLQMKVRYTNFILWGTIAFLFVVACMCYYYYKNRNNKKKIAEIELQIQENEEEIERYQQEIEDIQISKDQVLKENLMLEENRTKVGELNGKIVLLTMQNKTLSEHLKELGGELNVGISSGSFIHAFRLLLAIKEGTLRGKLSNEERQKLFSLFDLIYWNYVSRLLERAPTLTKHDLEICCFLKFGLSHEELSCIFHTTSDSVTRAKGRLKGRLGISPQDDLDLFLKEF”: the protein production result is given as “failed”.

For the sequence “MKTSLRLEDGTKNSLQIPIDLIIEIFLRLSVNSIARCRCVSKQWASTLSRPYFTELFLTRSLARPKLLFAYRKGSDYLFLSSPQLQNPDDDHKKSSPVVVNYHMHHILTLGSGNMSWRTIQCCIPHRSFDGGICIDGLIYYYAGVNNNDIVIVCFDVRSEEFRFIIGALHHGSLINYNGKLSLYLPSTVYSRFNGVIRSIKLWVLEDAKRQEWSEHTYILPAMHDIMKTTDLRCVGMTQTKEFVFWSIKGMRFYVFYYNIERNTIKKVEMQGMEAFKESNVYTFLDHVEDVKLMQFF”, the protein production entry was “failed”.

“MKTSVIISTYTKERYKDVLRCIESVRHQSLKPYEILLILDPVKSLVEYYKNIVPKDVRVVVSDGFGLSKARNKGVFEAKGDIIAFIDDDAWADDLWLEKIVENYSDEGVYGVGGKIIPVFENGRPKWLPEELDWIVGCTYKGMPEQRTNIRNPIGANMSFRREAFEIAGPFRSEIGRYGKKLLSGEEAEFAMRLRKIKPDAKIIYEPSAVVYHKVPKSRVRISYAVKRAFYEGYSKAILAKEFPLEMESKYLNFILRSILRKLLSKGQQIEALVMSVIVMTVGIGNLYGTCRILLRK”: the protein production result was “failed”.

Turning to “MKTVLAFGDSLTWGADPATGLRHPVEHRWPDVLEAELAGKAKVHPEGLGGRTTCYDDHAGPACRNGARALEVALSCHMPLDLVIIMLGTNDIKPVHGGRAEAAVSGMRRLAQIVETFIYKPREAVPKLLIVAPPPCVAGPGGEPAGGRDIEQS”, the protein production result is recorded as “not failed”.

“MKTVRCSILGFGAIGQGVAEVLLMKKEYLESIGLEIIVVAVVDSRGATINPEGVDLADCLARKRTTGTVAIEKITGVEVIKSIDHDLVIETTPTNIVTGGAGLQNMFAAFEIGKDVITSNKGPLTLKYRELMEAAKVAGSSFRFEATVGGSMPIINLANEVLAGNRLKSIKGILNGTCNYILTRMLEERASYKDILAESMELGIAETDPTYDVDGIDTACKLVILANAIFGLNATYKDVEVTGITKITPEALEMAYERGHVIKLIGEVSRERIHVAPRLVPINHPLDVRGTLNVASIDTELAGEITVTGKGAGPVETASAILSDLIAIYGNQLEHHHHHH”: the protein production result is on record as “not failed”.

Regarding “MKTVVIGAGLGGLLSAARLSKAGHEVEVFERLPITGGRFTNLSYKGFQLSSGAFHMLPNGPGGPLACFLKEVEASVNIVRSEMTTVRVPLKKGNPDYVKGFKDISFNDFPSLLSYKDRMKIALLIVSTRKNRPSGSSLQAWIKSQVSDEWLIKFADSFCGWALSLKSDEVPVEEVFEIIENMYRFGGTGIPEGGCKGIIDALETVISANGGKIHTGQEVSKILIENGKAAGIIADDRIHDADLVISNLGHAATAVLCSEALSKEADAAYFKMVGTLQPSAGIKICLAADEPLVGHTGVLLTPYTRRINGVNEVTQADPELAPPGKHLTMCHQYVAPENVKNLESEIEMGLEDLKEIFPGKRYEVLLIQSYHDEWPVNRAASGTDPGNETPFSGLYVVGDGAKGKGGIEVEGVALGVMSVMEKVLGLEHHHHHH”, the protein production result was “not failed”.

On to “MKTWIFICMSIAMLLWFLSTLRRKPSQKKGCIDAIIPAYNEGPCLAQSLDNLLRNPYFCRVICVNDGSTDNTEAVMAEVKRKWGDRFVAVTQKNTGKGGALMNGLNYATCDQVFLSDADTYVPPDQDGMGYMLAEIERGADAVGGIPSTALKGAGLLPHIRATVKLPMIVMKRTLQQLLGGAPFIISGACGMFRTDVLRKFGFSDRTKVEDLDLTWTLVANGYRIRQANRCIVYPQECNSPREEWRRWRRWIVGYAVCMRLHKRLLFSRFGIFSIFPMLLVVLYGVGIYLTTWFNEFITTGPHGVVLAMFPLIWVGVVCVIGAFSAWFHRCWLLVPLAPLSVVYVLLAYAIWIIYGLIAFFTGREPQRDKPTRYSALVEASTAYSQPSVTGTEKLSEA”, for which the protein production result was “failed”.

Regarding “MKVAGDKIKQARKLKKITQSELANGICTQATISNIENRNLCDSLDIFSSICLRLDLEVEECMMISEEKKIENLLNKVEDLSLRLFHLEAYNLLQEVPEGLILSNNELTTKLLYYKGITCLLGKKDKAEALFYLYRGAEIDRKVNIYNILSLNALGTLYELEKDMRKAQVYYEKSLQELEQFKLECSLERCRIYYNSAKFYSEMKDYQKSVILSEKGIQICRDKHSIYLLDYLLYEKAFNKQMLGEDTADDYRQAYYFTQFFGNTEVLQYIEKDMKAFNISY”, the protein production result is given as “failed”.

“MKVAIMGAGAVGCYYGGMLARAGHEVILIARPQHVQAIEATGLRLETQSFDEQVKVSASSDPSAVQGADLVLFCVKSTDTQSAALAMKPALAKSALVLSLQNGVENADTLRSLLEQEVAAAVVYVATEMAGPGHVRHHGRGELVIEPTSHGANLAAIFAAAGVPVETSDNVRGALWAKLILNCAYNALSAITQLPYGRLVRGEGVEAVMRDVMEECFAVARAEGVKLPDDVALAIRRIAETMPRQSSSTAQDLARGKRSEIDHLNGLIVRRGDALGIPVPANRVLHALVRLIEDKQQHG”: the protein production result is “not failed”.

In the case of “MKVDDTEEASQKPEDILAQGKDEARLSLEERRKLFQSKGLSAEESLVSVSTEDTLFQKEEDSKVYPLSMTWSFGWNSSLPVYYMREDRRVILYTCAHTAIMYDVVRNTQYHLQGHPNIISCLCVSEDRRWIATADEGPDCLIIIWDSFTGIPVHTIFDSCPEGNGMRSIAITRDSKFLATISDSATQKVCIWKWTLAVETPACTLELPKEYGFQDNLVFNPANNKELVSNSKTQAIYYCWFEDKGILAHSAPVLTEKTFNKLVGKFSQSVFHLKLPQVLSATKEGKLVVWDIHYPSSTSSSAISAFPFIKPRKLVHLQKEAITVLMTIDSYIVTGDIKGNIKFYDHTLSVVNWYSNFKLGAIRTLSFSKTIPSLPTEKSNLPTDCTLRGDLFVVRNFIIGTFDATVYHMTVDGTKLEKLFVEPRDAVYAVSCHPYQPLIAVGSVCGMIKVWDFEKKVYLFSRTFEKGLGVQCLTYNPEGALLGAGFTEGTVYILDAMSLENESPEPFKYSKSSVSHCCFSHDSNYMATADVNFTVAVYMVVVKNGQRVWEYLARLRSHQNSIQSLLFGVHLDSNEPRLLSLGKDRFLIEYNLVKSCKDHLDVLDVHRTDQGNYPTCMIWYPPLTKELFLLICNSGYKVKLFNATTKMCRKTLLGPAYGSPIEHAQVLPVKSTLELQKRYLVFINKDKVGLQILPVDGNPHKTCAIVCHPNGVAGMALSYDGRFAFTAGGQDRSVVQWKINLGALEAAVSLGGEDLTPFYGLVSGGREGKFYRELEDYFYYSQIRSQGIDTMETRQVSEHICLSELPFVMRAIGFYPSEEKIEDMFNEIKFSEYVETGKLIDKINLPDFLKVYLNHRPPFGNTMDGIQNSFNVLGYTNSEGKKAIRREDFLNLLLTKGEHMTEEEMIDCFSTLFGLTPEGWKSEPAATCINGPEICLQKELPEEITAEIFTTEILGLTLSDSSEQLIQ”, the protein production entry is listed as “failed”.

For the sequence “MKVFDVHKFDMKKEQDFLQVQFNLKNRINLSPTIHPDSINTGAGVDLAYWEQDGEPYGVCCIIVIDADTKEVIEKVHSMGRISVPYVSGFLAFRELPLIIEAAKKLETEPDVFLFDGNGYLHYNHMGVATHAAFFLGKPTIGIAKTYLKIKGCDFVTPEIEVGAYTDIIIDGEVYGRALRTRRDVKPIFLSCGNYIDLDSSYQITMSLINQESRLPIPVRLADLETHVLRTFYQKNHVLEHHHHHH”, the protein production result is on record as “not failed”.

With “MKVFITGGTGFVGSAVVQELVANGFEVVGLARSETSAQKLISWGAQPVRGSLTSLSTLATAAAQADAIIHLGFNNDFRHFFQAGAMDRRAIETMGRAISGTNKPLVVTYGTTGIRKHVETEHEVADTGLLKWLTPRKSEIVARQLMAQNINAFVVRLSPAVHGAGDMGFTRTVIERAKKSHRAEYFGLGTHAWSAVHRLDAAHLFYLVTMYGLEHPTTNERVFNAVAEESITIAAIARTISRKLNVPLKAKYNPLSFGDTAMLYLINCPTSSQLTRQILGWVPVQPDLLTDISSSRYLEHHHHHH”, the protein production result was “failed”.

As to “MKVFTEKIPNIPWEERPEGYTGPVWRYSKNPIIGRNPVPKGARVFNSAVVPYNGEFVGVFRIDHKNTRPFLHFGRSKDGINWEIEPEEIQWVDVNGEPFQPSYAYDPRVVKIEDTYYITFCTDDHGPTIGVGMTKDFKTFVRLPNAYVPFNRNGVLFPRKINGKYVMLNRPSDNGHTPFGDIFLSESPDMIHWGNHRFVLGRSSYNWWENLKIGAGPYPIETSEGWLLIYHGVTLTCNGYVYSFGAALLDLDDPSKVLYRSRYYLLTPEEEYETVGFVPNVVFPCAALCDADTGRVAIYYGAADTHVALAFGYIDEIVDFVKRNSM”, the protein production entry is “not failed”.

In the case of “MKVIEVTHPIQSNQFITENVAMAFGFFDGMHRGHDKVFQVLDEKAKEHQLKKAVMTFDPHPSVVLNPERKRTTYLTPLSDKLEMIAEHGIDYCIVINFSSRFANVTSDDFIKNYIINNHVKEVIAGFDFTFGKFGKGNMTVLQESKAFNTTIVGKQEMDSEKISTTAIRQALTDGHLQKANDELGYIYRIKGTVVQGEKRGRTIGFPTANVQPSDDYVLPKKGVYAVSMEIGPESKLHRGVANVGVKPTFHDPTRAELVIEVNIFDFNENIYGERVTVYWHHFLRPEVKFDGIDPLVKQMNEDKAQAKHLLSIDFDDDISYNI”, the protein production entry is “failed”.

For “MKVIILGSGSYSGTPKPLCTCENCTRARINPAFRRTRFSVYIEGGILIDPGPDLHYHLEKLNKEVETILITHAHFDHIFGLPDAQVFKKLTIASNPLGIKVARSLAMLAFNSEAPLGNDWDYVELKFWNEYKVNGVKVIHFPVVHSIEMAGGFLIERKNKTVAITGDTGPEIIRDSEVIDLIKGSDLLISEMTHKESIPKTHLGVNDAIELAKIVKAEQTVFAHISHSNYPQEILEKKVREAKISGIVARDFTIIEI”, the protein production entry is “failed”.

In the case of “MKVIKGLTAGLIFLFLCACGGQQIKDPLNYEVEPFTFQNQDGKNVSLESLKGEVWLADFIFTNCETICPPMTAHMTDLQKKLKAGNIDVRIISFSVDPENDKPKQLKKFAANYPLSFDNWDFLTGYSQSEIEEFALKSFKAIVKKPEGEDQVIHQSSFYLVGPDGKVLKDYNGVENTPYDDIISDVKSASTLK”, the protein production entry is “not failed”.

Turning to “MKVKIGLKCSDCEDINYSTTKNAKTNTEKLELKKFCPRENKHTLHKEIKLKS”, the protein production result is on record as “failed”.
